Where a chain is given by its changes, count along the chain named. Names may count otherwise.

To fix the notation:
B1: target 2 MT 5'PFS GCG 3'PFS CGU (mixed)
RNA 1: CACCCGUGCAAAAUUGCAGGGGUCUAAAACCUUCUCCAAAUUGUUUCAUCCU
RNA 2: GGGAAUGGAUCCACAUCUACGAAUUCGCGAGGAUGAAACAAUUUGGAGAAGCGUAGAUCGGAAGAGCACACGU
B2: target 2 MT 5'PFS GAA 3'PFS CAG (mixed)
RNA 1: B1 RNA 1
RNA 2: B1 RNA 2 with C28A, G29A, G53A, U54G
B3: target 2 MT 5'PFS UUC 3'PFS CAG (mixed)
RNA 1: B1 RNA 1
RNA 2: B1 RNA 2 with G27U, C28U, G29C, G53A, U54G
B4: target 2 MT 5'PFS CUU 3'PFS CAU (mixed)
RNA 1: B1 RNA 1
RNA 2: B1 RNA 2 with G27C, C28U, G29U, G53A
B5: target 2 MT 5'PFS CAU 3'PFS AUG (mixed)
RNA 1: B1 RNA 1
RNA 2: B1 RNA 2 with G27C, C28A, G29U, C52A, G53U, U54G
B6: target 2 MT 5'PFS CAU 3'PFS AUC (mixed)
RNA 1: B1 RNA 1
RNA 2: B1 RNA 2 with G27C, C28A, G29U, C52A, G53U, U54C
B7: target 2 MT 5'PFS AGC 3'PFS UCC (mixed)
RNA 1: B1 RNA 1
RNA 2: B1 RNA 2 with G27A, C28G, G29C, C52U, G53C, U54C
B8: target 2 MT 5'PFS UGC 3'PFS AGG (mixed)
RNA 1: B1 RNA 1
RNA 2: B1 RNA 2 with G27U, C28G, G29C, C52A, U54G
B9: target 2 MT 5'PFS AGC 3'PFS UCU (mixed)
RNA 1: B1 RNA 1
RNA 2: B1 RNA 2 with G27A, C28G, G29C, C52U, G53C
B10: target 2 MT 5'PFS CUC 3'PFS UGU (mixed)
RNA 1: B1 RNA 1
RNA 2: B1 RNA 2 with G27C, C28U, G29C, C52U
B11: target 2 MT 5'PFS ACU 3'PFS UUC (mixed)
RNA 1: B1 RNA 1
RNA 2: B1 RNA 2 with G27A, G29U, C52U, G53U, U54C
B12: target 2 MT 5'PFS CAU 3'PFS AUA (mixed)
RNA 1: B1 RNA 1
RNA 2: B1 RNA 2 with G27C, C28A, G29U, C52A, G53U, U54A
B13: target 2 MT 5'PFS ACU 3'PFS UUG (mixed)
RNA 1: B1 RNA 1
RNA 2: B1 RNA 2 with G27A, G29U, C52U, G53U, U54G
B14: target 2 MT 5'PFS GAA 3'PFS CAC (mixed)
RNA 1: B1 RNA 1
RNA 2: B1 RNA 2 with C28A, G29A, G53A, U54C
B15: target 2 MT 5'PFS UUC 3'PFS CAA (mixed)
RNA 1: B1 RNA 1
RNA 2: B1 RNA 2 with G27U, C28U, G29C, G53A, U54A
B16: target 2 MT 5'PFS AGC 3'PFS UCA (mixed)
RNA 1: B1 RNA 1
RNA 2: B1 RNA 2 with G27A, C28G, G29C, C52U, G53C, U54A
B17: target 2 MT 5'PFS ACU 3'PFS UUA (mixed)
RNA 1: B1 RNA 1
RNA 2: B1 RNA 2 with G27A, G29U, C52U, G53U, U54A
B18: target 2 MT 5'PFS UUC 3'PFS CAC (mixed)
RNA 1: B1 RNA 1
RNA 2: B1 RNA 2 with G27U, C28U, G29C, G53A, U54C
B19: target 2 MT 5'PFS CAG 3'PFS ACG (mixed)
RNA 1: B1 RNA 1
RNA 2: B1 RNA 2 with G27C, C28A, C52A, G53C, U54G
B20: target 2 MT 5'PFS GCG 3'PFS CGA (mixed)
RNA 1: B1 RNA 1
RNA 2: B1 RNA 2 with U54A
B21: target 2 MT 5'PFS CUU 3'PFS CAG (mixed)
RNA 1: B1 RNA 1
RNA 2: B1 RNA 2 with G27C, C28U, G29U, G53A, U54G
B22: target 2 MT 5'PFS AAU 3'PFS ACA (mixed)
RNA 1: B1 RNA 1
RNA 2: B1 RNA 2 with G27A, C28A, G29U, C52A, G53C, U54A
B23: target 2 MT 5'PFS AGC 3'PFS UCG (mixed)
RNA 1: B1 RNA 1
RNA 2: B1 RNA 2 with G27A, C28G, G29C, C52U, G53C, U54G
B24: target 2 MT 5'PFS UCA 3'PFS CUU (mixed)
RNA 1: B1 RNA 1
RNA 2: B1 RNA 2 with G27U, G29A, G53U
B25: target 2 MT 5'PFS UGC 3'PFS AGA (mixed)
RNA 1: B1 RNA 1
RNA 2: B1 RNA 2 with G27U, C28G, G29C, C52A, U54A
B26: target 2 MT 5'PFS UGC 3'PFS AGC (mixed)
RNA 1: B1 RNA 1
RNA 2: B1 RNA 2 with G27U, C28G, G29C, C52A, U54C
B27: target 2 MT 5'PFS CUU 3'PFS CAA (mixed)
RNA 1: B1 RNA 1
RNA 2: B1 RNA 2 with G27C, C28U, G29U, G53A, U54A
B28: target 2 MT 5'PFS GAA 3'PFS CAA (mixed)
RNA 1: B1 RNA 1
RNA 2: B1 RNA 2 with C28A, G29A, G53A, U54A
B29: target 2 MT 5'PFS CAG 3'PFS UUC (mixed)
RNA 1: B1 RNA 1
RNA 2: B1 RNA 2 with G27C, C28A, C52U, G53U, U54C
B30: target 2 MT 5'PFS CAG 3'PFS ACA (mixed)
RNA 1: B1 RNA 1
RNA 2: B1 RNA 2 with G27C, C28A, C52A, G53C, U54A
B31: target 2 MT 5'PFS ACU 3'PFS UUU (mixed)
RNA 1: B1 RNA 1
RNA 2: B1 RNA 2 with G27A, G29U, C52U, G53U
B32: target 2 MT 5'PFS CUU 3'PFS CAC (mixed)
RNA 1: B1 RNA 1
RNA 2: B1 RNA 2 with G27C, C28U, G29U, G53A, U54C
B33: target 2 MT 5'PFS CAU 3'PFS AUU (mixed)
RNA 1: B1 RNA 1
RNA 2: B1 RNA 2 with G27C, C28A, G29U, C52A, G53U
B34: target 1 insG 3' of 10,insC 3' of 8 (mixed)
RNA 1: CACCCGUGCAAAAAUGCAGGGGUCUAAAACUGAGCGGAUAACCUCUCUAUGG
RNA 2: GGGAAUGGAUCCACAUCUACGAAUUCGUACCAUAGAGAGGUUGAUCCCGCUCACCGAGAUCGGAAGAGCACACGU
B35: target 1 U10C,G12C (mixed)
RNA 1: B34 RNA 1
RNA 2: GGGAAUGGAUCCACAUCUACGAAUUCGUACCAUAGAGAGCUCAUCCGCUCACCGAGAUCGGAAGAGCACACGU
B36: target 1 G17C,A18G (mixed)
RNA 1: B34 RNA 1
RNA 2: B35 RNA 2 with A34G, G35C, C40G, C42U

The target of this data set is T1, EsCas13d, nuclease-dead (Eubacterium siraeum, UniProt B0MS50, R295A;H300A;R849A;H854A).
T1 sequence: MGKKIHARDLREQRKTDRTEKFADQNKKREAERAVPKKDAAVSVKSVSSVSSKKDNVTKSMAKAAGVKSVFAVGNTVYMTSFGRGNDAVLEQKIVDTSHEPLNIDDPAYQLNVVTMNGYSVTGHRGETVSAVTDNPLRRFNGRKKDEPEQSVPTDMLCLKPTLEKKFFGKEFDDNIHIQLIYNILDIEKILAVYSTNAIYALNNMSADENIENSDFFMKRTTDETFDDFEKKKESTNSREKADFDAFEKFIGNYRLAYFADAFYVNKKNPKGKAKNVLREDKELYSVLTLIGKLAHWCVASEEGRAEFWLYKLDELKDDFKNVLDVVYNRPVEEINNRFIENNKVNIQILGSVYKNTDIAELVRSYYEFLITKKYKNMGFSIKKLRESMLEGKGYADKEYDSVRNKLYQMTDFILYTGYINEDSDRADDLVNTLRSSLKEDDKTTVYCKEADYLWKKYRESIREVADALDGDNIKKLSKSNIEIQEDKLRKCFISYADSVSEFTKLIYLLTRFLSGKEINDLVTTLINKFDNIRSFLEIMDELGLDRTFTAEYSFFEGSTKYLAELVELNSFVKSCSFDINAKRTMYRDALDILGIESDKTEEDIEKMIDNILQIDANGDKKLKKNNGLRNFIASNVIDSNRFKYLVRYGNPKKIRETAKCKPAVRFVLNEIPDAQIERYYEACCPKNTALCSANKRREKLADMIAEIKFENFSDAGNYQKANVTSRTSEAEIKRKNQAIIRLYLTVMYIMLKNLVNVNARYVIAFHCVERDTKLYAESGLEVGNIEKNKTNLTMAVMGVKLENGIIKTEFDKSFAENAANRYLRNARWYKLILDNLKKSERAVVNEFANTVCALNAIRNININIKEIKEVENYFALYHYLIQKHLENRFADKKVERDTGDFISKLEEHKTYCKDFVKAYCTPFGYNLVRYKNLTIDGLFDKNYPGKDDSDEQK
Put plainly: crRNA (strand 1, pre-loaded); Mg2+; 40 mM Tris-HCl pH 7.5, 150 mM NaCl, 6 mM MgCl2, 1 mM DTT, 0.1% Tween-20, 0.2 mg/ml BSA; 25 C; 10 min per concentration, then washed. Conditions: tags: His6-TwinStrep-SUMO cleaved; N-terminal SNAP kept (SNAP-Surface 488); label: 3' end held by stalled T7 RNA polymerase.
By Kd is commonly meant the equilibrium constant for the complex coming apart. Turning to B1, the Kd was 14.4 ± 3 nM.
For B2 the value was 6.6 ± 0.6 nM; for B3, 6.5 ± 1.4 nM; for B4, 4.1 ± 0.6 nM.
Take B5: binding was put at a Kd of 4 ± 0.7 nM.
Consider B6, for which the Kd stood at 3.3 ± 0.5 nM.
B7: binding was characterised by a dissociation constant (Kd) of 23 ± 4 nM.
For B8 the value was approximately 60 nM.
With B9 the figure was 16.1 ± 2.8 nM; with B10, 2.23 ± 0.19 nM; with B11, 7.1 ± 2 nM.
With B12 the figure was 3.31 ± 0.27 nM.
On to B13, for which binding was characterised by a dissociation constant (Kd) of 7 ± 1 nM.
With B14 the figure was 7 ± 1.5 nM.
For B15 the value was 30 ± 6 nM; for B16, 27 ± 10 nM; for B17, 9.4 ± 2.2 nM.
With B18 the figure was 13 ± 4 nM; with B19, 5.8 ± 2.8 nM; with B20, 30 ± 12 nM.
B21 had a Kd of 3.75 ± 0.3 nM.
With B22 the figure was 7.5 ± 1.3 nM; with B23, 14.3 ± 3.2 nM.
With B24 the figure was 5 ± 0.9 nM; with B25, 26 ± 9 nM; with B26, 19.7 ± 1.9 nM.
For B27 the value was 2.9 ± 0.4 nM.
Take B28: binding was characterised by a dissociation constant (Kd) of 4.9 ± 0.7 nM.
For B29, the Kd worked out at 19 ± 8 nM.
For B30 the value was 5.3 ± 2.1 nM; for B31, 6.4 ± 0.8 nM; for B32, 3.41 ± 0.28 nM.
In turn, B33 gave a Kd of 4.1 ± 0.6 nM.
For B34 the value was 27.8 ± 1.9 nM.
For B35 the value was 71 ± 27 nM; for B36, approximately 90 nM.
